Reference: patent US20240352069A1, “SYNTHETIC PEPTIDE, AND COSMETIC COMPOSITION OR PHARMACEUTICAL COMPOSITION AND APPLICATION THEREOF” (SHENZHEN WINKEY TECHNOLOGY CO., LTD., priority 2021, published 2024)

What was measured:
HaCaT cells [1] = experiment: Scratch test (cell migration); assay type: cell-based, human; settings: 24 hours after scratch; peptides 100 ppm, EGF 50 U/mL; vs normal control group
Procedure: (§1) Human keratinocytes (HaCaT) were purchased from the Kunming Cell Bank of the Type Culture Collection Committee of the Chinese Academy of Sciences.
The cryopreserved HaCaT cells were cultured, subcultured to about 5 passages according to the ratio of 1:2, and the cells with better growth were selected as the experimental objects. Cells were seeded in a 12-well plate at a density of 200,000 cells/well, with 2 mL of cell suspension in each well. After the cells adhered to the wall, the medium was replaced with 0.5% to 1% fetal bovine serum to maintain the cells for 24 hours to synchronize them. change. Scratch with a sterilized pipette tip, wash off the dropped cells with PBS, add the sample to be tested, continue to incubate in a 37° C., 5% CO2 incubator, and place it under an optical microscope after 24 hours to analyze the wound healing area.
The cell scratch migration test can reflect the proliferation and repair ability of the cells.

HaCaT cells [2] = experiment: Promoting cell adhesion test (MTT after three-dimensional force); assay type: cell-based, human; settings: 12.5, 25, 50, 100 ppm coated plate, vs normal control group
Procedure: as §1
Dissolve with PBS solution.
The cryopreserved HaCaT human cuticle cells were cultured, subcultured at a ratio of 1:2 to about 5 passages, and the cells with better growth were selected as the experimental objects.
The sample to be tested was added to a 96-well plate at a rate of 20 μL/well, and dried overnight in a constant temperature oven at 37° C. […] Set the detection wavelength to 490 nm, the reference wavelength to 630 nm, and use a microplate reader to read the OD value.
By selecting HaCaT cells, plate them in a drug-coated 96-well plate, and after incubation and a period of three-dimensional force, the cells with strong adhesion can be maintained on the 96-well plate. By performing MTT quantitative analysis on the live cells on the plate, that is, the effect of the drug on cell adhesion can be evaluated to determine whether the peptide of the present invention can improve cell elasticity. After three-dimensional force action, the more living cells remained on the 96-well plate, the greater the measured OD value, indicating the stronger the adhesion of the cells.

IL-8 = experiment: Anti-inflammatory repair experiment, LPS-stimulated RAW264.7 cells, ELISA IL-8; assay type: cell-based, mouse; settings: 100 ppm, 200 ng/mL LPS, 48 h, vs LPS group
Excerpt: Mouse mononuclear macrophages (RAW264.7 cells).
Peptide (2), tested at a concentration of 100 ppm.
• a) Take RAW264.7 cells in good exponential growth phase, add 0.25% trypsin digestion solution, digest to make adherent cells fall off, count 1-4×10^6 cells/mL, and make cell suspension; • b) Appropriately dilute 100,000 cells/well of cell suspension and inoculate it on a 6-well plate, and establish an LPS-stimulated inflammation model when the cells reached about 80% confluent. Set blank control group (control), LPS group, dexamethasone group (DXM), polypeptide group. Add 1000 μL culture medium to the blank control group; add 200 ng/mL LPS to the LPS group, add culture medium to 1000 μL; add 200 ng/mL LPS and 50 ng/mL dexamethasone to the dexamethasone group, add culture medium to 1000 μL; add 200 ng/mL LPS and peptide (2) to the polypeptide group, add culture medium to 1000 μL (final test concentration of peptide is 100 ppm). […] The OD value of each well was sequentially measured at 450 nm with a microplate reader within 15 min after the reaction was terminated. […]

[3] = Stability of powders at 25° C. and 40° C. (HPLC purity over time)
Procedure: In Example 29, the HPLC chromatographic separation conditions were as follows: • Chromatographic column: Octadecyl bonded silica gel as filler 4.6*250 mm, 5 m • Mobile phase A: Acetonitrile (containing 0.09% trifluoroacetic acid) • Mobile phase B: 0.1% trifluoroacetic acid • Diluent: water • Flow rate: 1.0 ml/min; • Column temperature: 35° C.; • Detection wavelength: 215 nm; • Injection volume: 10 μl; • Running time: 32 min • Gradient elution table:
The test solution: Take an appropriate amount of this product and add water to dissolve and dilute to make a solution containing 1 mg per 1 ml.

Q: Which “scratch spacing (proliferation and migration)” value (HaCaT cells [1]) does the source give for “H-Ala-Pro-Phe-Arg-Met-Gly-Ile-Met-Thr-Thr-Asn-OH (H-APFRMGIMTTN-OH) [Peptide (2)]” here?
A: shorter than that of the normal control group

Q: What about the “adhesion ability of HaCaT cells” value (HaCaT cells [2]) of the same substance?
A: could improve the adhesion ability of HaCaT cells

Q: What about the “expression of IL-8” value (IL-8) of the same substance?
A: significantly down-regulated

Q: What about the “powder (purity)” value ([3]; 25° C., Day 20) of the same substance?
A: 99.146%

Q: And the “powder (purity)” value ([3]; 40° C., Day 20, listed as Peptide(2))?
A: 98.583%

Q: What about the “powder (purity)” value ([3]; 40° C., Day 20, listed as peptide (2)) of the same substance?
A: remained unchanged

Q: And the “powder (purity)” value ([3]; powder, Day 0)?
A: 99.291%
